Experimental data as given in PMC3669278, “An Iron 13S-Lipoxygenase with an α-Linolenic Acid Specific Hydroperoxidase Activity from Fusarium oxysporum” (PLoS ONE, 2013).
Each block holds one molecule with its values, some of them ahead of it.

Legend:
FoxLOX = molecular target: T1, FoxLOX (Fusarium oxysporum, UniProt A0A0J9UTC2); assay: initial rate of conjugated diene formation at […] nm, Michaelis-Menten fit; type: biochemical; conditions: 50 mM Tris/HCl pH 8.0, room temperature, air-equilibrated, fatty acid sodium salt
T1 construct: gene FOXG_04807; full-length ORF, 744 residues, in pET28a with N-terminal hexa-His tag (removal not mentioned); E. coli Bl21star; non-heme iron; iron-ligand residues His-408, His-413, His-595, Asp-599, Ile-744
T1 sequence (A0A0J9UTC2 1-744): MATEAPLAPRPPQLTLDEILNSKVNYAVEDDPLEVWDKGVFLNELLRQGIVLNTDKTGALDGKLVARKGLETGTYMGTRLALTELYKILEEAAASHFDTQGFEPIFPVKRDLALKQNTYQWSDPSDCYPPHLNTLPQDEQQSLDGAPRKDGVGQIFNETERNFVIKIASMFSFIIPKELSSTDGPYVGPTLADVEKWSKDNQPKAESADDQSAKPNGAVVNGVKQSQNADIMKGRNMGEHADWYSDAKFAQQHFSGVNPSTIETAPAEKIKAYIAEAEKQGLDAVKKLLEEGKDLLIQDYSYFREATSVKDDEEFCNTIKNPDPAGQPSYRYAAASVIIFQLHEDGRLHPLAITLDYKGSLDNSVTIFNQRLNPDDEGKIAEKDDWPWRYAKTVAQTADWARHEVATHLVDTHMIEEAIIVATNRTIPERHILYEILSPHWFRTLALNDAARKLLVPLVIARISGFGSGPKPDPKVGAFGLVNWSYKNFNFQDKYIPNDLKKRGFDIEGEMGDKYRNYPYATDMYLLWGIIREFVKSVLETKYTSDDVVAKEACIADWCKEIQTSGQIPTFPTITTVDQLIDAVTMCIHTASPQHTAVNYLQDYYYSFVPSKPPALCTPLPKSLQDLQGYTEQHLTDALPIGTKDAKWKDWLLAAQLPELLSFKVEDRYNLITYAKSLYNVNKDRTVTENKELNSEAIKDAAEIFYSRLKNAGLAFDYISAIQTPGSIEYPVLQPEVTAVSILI

[1] = molecular target: FoxLOX (Fusarium oxysporum lipoxygenase, iron 13S-lipoxygenase) (Fusarium oxysporum f. sp. lycopersici strain 4287); assay: SEC; S200pg 26/60 column; 50 mM Tris/HCl pH 8.0, 10% glycerol, 125 mM NaCl; affinity-purified FoxLOX; apparent mass about 173 kDa against about 80 kDa by SDS-PAGE and 83.5 kDa theoretical
purified protein = substrate: CCCCC/C=C\C/C=C\C/C=C\C/C=C\CCCC(=O)O; assay: purified protein; type: biochemical, Fusarium oxysporum; conditions: 50 mM Tris/HCl pH 8.0, room temperature, air-equilibrated, fatty acid sodium salt

Molecule: CCCCC/C=C\C/C=C\CCCCCCCC(=O)O [18∶2(n-6)]
- Km (FoxLOX): 6.89 ± 0.79 µM

Molecule: CC/C=C\C/C=C\C/C=C\CCCCCCCC(=O)O [18∶3(n-3)]
- Km (FoxLOX): 31.7 ± 3.79 µM

Molecule: CCCCC/C=C\C/C=C\C/C=C\CCCCC(=O)O [18∶3(n-6)]
- Km (FoxLOX): 34.8 ± 5.38 µM

- stoichiometry N [1]: 2
Molecule: FoxLOX (Fusarium oxysporum lipoxygenase, iron 13S-lipoxygenase) (enzyme)

B1: FoxLOX (Fusarium oxysporum f. sp. lycopersici 4287) (protein)
chain: T1 sequence (A0A0J9UTC2 1-744)
notes: full-length ORF, 744 residues, in pET28a with N-terminal hexa-His tag (removal not mentioned); E. coli Bl21star; non-heme iron; iron-ligand residues His-408, His-413, His-595, Asp-599, Ile-744
- Km (purified protein): 3.37 ± 0.55 µM
- kcat (purified protein): 1.71 ± 0.0632 s⁻¹
- kcat/Km (purified protein): 507000 M⁻¹ s⁻¹
